# Measurements taken from the supplement of paper PMC12042874.
# ± gives the uncertainty stated by the source.
# Test: amyloid nucleation score (Sup35N fusion, yeast selection) (log enrichment); library NNK1; higher = more nucleation; inactive = no reads after selection
# Summary of the method: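 Sup35N fusions to peptides of 20 random codons were expressed in psi-negative yeast, induced 24 hours with 100 μM copper sulfate, and grown 7 days at 30°C on medium lacking adenine and uracil. Input and output plasmid inserts were sequenced by Illumina. The nucleation score is the DiMSum log enrichment of output over input reads, centred on the mode score of non-aggregating sequences. Sequences with under 100 input reads were excluded.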
row,Substance,amyloid nucleation score
1,VNNFIDCSSFCVYYLFKPGR,7.671 ± 0.051
2,VNTMPILFFMPCVMKLSV,1.53 ± 0.57
3,VNYFARSGASKICML,-0.366 ± 0.88
4,VPANEFCMADIMHRANRMLG,0.758 ± 0.71
5,VPILFRLLVNTSPYNGPLGL,-0.042 ± 0.56
6,VPRLLYQFLTSHTVVDSPEV,-0.069 ± 0.56
7,VPSLRYYLYGSFFVI,-2.49 ± 1.7
8,VQFSLGALFWWPWGR,2.27 ± 0.22
9,VQSIRRKVLETRQERVGAQR,0.04 ± 0.42
10,VRAGH,0.087 ± 0.27
11,VRARVLSKTIMMTTYERHLV,-0.691 ± 1.7
12,VRCTFLVKVDWTFYKASRPR,0.087 ± 0.47
13,VRFFM,-0.422 ± 0.45
14,VRFKGMWHKQ,-1.04 ± 1.1
15,VRGLGGW,-0.134 ± 0.97
16,VRGYGGVC,-0.296 ± 0.3
17,VRIINMFVDPNIIL,6.818 ± 0.044
18,VRIRPISPMPDYSPPANWSK,0.041 ± 0.47
19,VRISVCNYWFMVVGMAF,0.251 ± 0.31
20,VRLFMYMCIWMFMSDSSIWG,-0.348 ± 0.64
21,VRLLEHSANPSMGKMNMNVG,0.231 ± 0.74
22,VRLTSINSLCIVGDTQGST,0.945 ± 0.73
23,VRMIFVQCWKCTESNFCERN,-0.174 ± 0.66
24,VRRCFFVYSVR,-0.979 ± 1.2
25,VRTSVCCTRALAMLRSLWVT,-0.625 ± 0.73

row,Substance,amyloid nucleation score
1,VRVPCDIAIYMYGGLKALLS,-0.245 ± 1.3
2,VRVWTYLAWVQYLPYQMGLF,inactive
3,VRWCYILQQ,inactive
4,VRWDPVRRIWFALR,inactive
5,VRYSGNMLSSTSVNGIFGHE,0.067 ± 0.28
6,VSCANMNIDELTWHVDWWCL,7.597 ± 0.047
7,VSCMRDIIRLCYQQTPICKF,-0.272 ± 0.84
8,VSCWLQISDLRAVAWPLRSF,0.588 ± 0.21
9,VSDRRTGVLRIHCNFKVGLS,1.89 ± 0.16
10,VSEDVFLWVKLSLTAGSEGR,-0.973 ± 0.4
11,VSFGIFMNESYV,1.52 ± 0.098
12,VSFNGFLHLFWVFILLNSPW,6.98 ± 0.085
13,VSGIVPDDLSVFDVHSKYV,0.455 ± 0.33
14,VSGSVFTNMIANILSTSRYV,-0.179 ± 1.6
15,VSHYGCFQTVCDLRVGGPPE,-1.4 ± 2.4
16,VSKTTRSCCWELFEA,-0.052 ± 0.42
17,VSLCAQRYVIMMSIVRTKSL,0.105 ± 0.22
18,VSLCEMNRSFCWDAGASGRV,0.621 ± 1
19,VSNTSLYPDKESMLRGTEWE,0.674 ± 0.77
20,VSPIMFAYSMSCMSFYGEHG,5.04 ± 0.1
21,VSRWYVILNML,4.03 ± 0.11
22,VSTSHCTSFVFNIYCKYDSR,8.542 ± 0.052
23,VSTSNSYDSSQHDLDFRQSG,-0.162 ± 0.63
24,VSTVLARSVWLWDTPFLRSE,-0.079 ± 0.34
25,VSYNVRIGWAVYN,0.89 ± 0.27

row,Substance,amyloid nucleation score
1,VTARTRSDS,0.55 ± 0.55
2,VTDEFCPVLSGG,0.317 ± 0.52
3,VTFRIVRVLPMEPVRTRAGD,-0.972 ± 0.54
4,VTIHETCRVWRFVRTDRRWG,0.553 ± 0.46
5,VTKLNMILMVGTVYGSNIGV,6.782 ± 0.05
6,VTNYGYDLFVLILDGAMNLS,0.407 ± 0.51
7,VTRYRTLTRHWWS,0.277 ± 0.39
8,VTSYFKIRLCFPRGMASCTR,3.37 ± 0.19
9,VTYSYASGDGPDSLWCT,-0.026 ± 0.84
10,VTYVMCFAMEMMVGRCRWGG,-0.029 ± 1.4
11,VVESTGFIWAGEWVLWIEFS,-0.356 ± 0.82
12,VVIVGAGIPWILGESAVFRC,0.218 ± 0.36
13,VVKSSTPSSDPTTASRIWLL,-0.26 ± 0.43
14,VVLTYSWGAYRY,1.26 ± 0.23
15,VVMLSVSPLTIHRGSFRDCS,2.97 ± 0.1
16,VVNLWTQADIMRSSCRLKHV,0.074 ± 0.19
17,VVQFKMWACQTFFMDLRNTM,1.56 ± 0.11
18,VVRLG,0.124 ± 1
19,VVVCAVHDDYSINRAIEDER,-0.183 ± 0.4
20,VVVVDDHDDVALSFIHTMSR,0.164 ± 0.43
21,VVVVIFDFRCNKLQ,2.28 ± 0.2
22,VVVYGCLYILVARRYDTIAW,0.493 ± 0.84
23,VVYHAFDALLNLCRSSYRGH,-0.811 ± 0.52
24,VWCVVVCMSRQGKYTLCRWR,0.444 ± 0.97
25,VWDRWDSGHVCYSNMAVWNV,0.536 ± 0.36

row,Substance,amyloid nucleation score
1,VWELGPFCDLEVRYV,0.531 ± 0.52
2,VWFIVLSRGQFHICFYGQG,-1.32 ± 2.7
3,VWFNPYLNDRSREGGRVVWM,0.099 ± 0.27
4,VWGQRGSGSNSCLEW,0.15 ± 0.68
5,VWKDRPEMYSCGHCIEMRAE,0.039 ± 0.37
6,VWLRNTKEMCFV,1.64 ± 0.11
7,VWMLTMSAFKVYWLNFINYA,-0.037 ± 0.22
8,VWNYVYGMMWCM,5.54 ± 0.09
9,VYASGWAQISVTGGTWLRGD,0.131 ± 0.42
10,VYDLS,-0.006 ± 0.72
11,VYFSSLVIFWYLFLYSFEYL,0.689 ± 0.48
12,VYGMITIDNRQVRVVLGFRS,-0.549 ± 0.71
13,VYGSIKSVEANTVWML,3.32 ± 0.16
14,VYGSPPNMWNVV,0.066 ± 0.79
15,VYHSCSDMCFKAFQVNTYQC,1.16 ± 0.66
16,VYLKEEHGKFAGGPSPRCKP,0.274 ± 0.46
17,VYPCACVFYSLGVGLQNEET,6.27 ± 0.089
18,VYQVNVGCWSCGCRTVICNR,7.932 ± 0.045
19,VYTDLKGENAGGIIYCGIGS,0.445 ± 0.26
20,VYTKYICWGCVNAQRFDHGT,8.269 ± 0.049
21,VYVDVSFPPPVFEWCGPQIT,0.392 ± 0.69
22,VYVFLADNGSDELLMLVLTG,0.12 ± 0.28
23,VYVSFTRNCVGCIGLD,4.62 ± 0.061
24,WALISYGVWGTRTADLCRCH,0.907 ± 0.65
25,WARCTGIMFGS,0.027 ± 0.97

row,Substance,amyloid nucleation score
1,WCCHAGAMFAMAKSL,0.468 ± 0.62
2,WCDGYVMFLDTNCIRINHIL,-0.162 ± 0.24
3,WCSKYCMMPSFPTMSRPVPL,-0.426 ± 0.44
4,WDEFGVDEWSYWLLLWYVAR,0.799 ± 0.97
5,WDLCISINYSVFLNLACSV,3.25 ± 0.098
6,WENTSRKYVAANDCARMRLG,-0.281 ± 0.41
7,WEPTR,0.174 ± 0.59
8,WEVVMWRYCAPRTGVLPQKP,-0.535 ± 1.2
9,WFCVHKTVSLDMASVDRKGQ,4.8 ± 0.088
10,WFGDGSCKRWLWGMKVTPED,-0.518 ± 0.69
11,WFGTHCVLSYVSTFWSLQSV,-0.275 ± 0.24
12,WFICKYNQFDHDVLFSVSTA,1.92 ± 0.68
13,WFIRARFTLGKRNELREVI,0.647 ± 0.64
14,WFLCSSRFISLLQ,-1.49 ± 0.47
15,WFSDMTAFLC,inactive
16,WFWELGN,0.201 ± 0.28
17,WFWMYGKGKESQSVVNGGGT,0.861 ± 0.53
18,WGAHCGWQF,-0.749 ± 1.3
19,WGEFYVNSSNFVNMQSVWQQ,-0.257 ± 1.7
20,WGNLASRLQALDQVRRSGSM,-0.56 ± 0.57
21,WGQLIRGRNRSSQGEEMRYL,-0.148 ± 0.26
22,WGSCISFRNRGMCLILDSVC,0.037 ± 0.37
23,WGTVYVPV,1.72 ± 0.49
24,WGVALRDAATAVDVGLVVRF,0.37 ± 0.62
25,WGYNRLNDDELLIMSKFLRQ,1 ± 0.48

row,Substance,amyloid nucleation score
1,WHASNFLTSSSHKMSSNWTS,0.67 ± 0.48
2,WHPRSLVPPTRL,0.758 ± 0.56
3,WHRGYGMLTRLRWRPDTVLF,-0.052 ± 1.2
4,WICQTGRFNELTHRCCVWFF,0.762 ± 0.47
5,WIMVFWEFVNLTCNNRILDN,-0.588 ± 0.72
6,WIPGRLLSAVKVGSNSLVF,-0.637 ± 0.62
7,WISEYGWFRIKFAWAAYGYR,-0.023 ± 0.72
8,WIYRFPHKMHVIEDVRSVN,0.894 ± 0.58
9,WKFLFVVFIYSNYVVGLLDN,-0.915 ± 0.67
10,WKGMMQFDMSHSCVYWWKCA,0.71 ± 1.1
11,WKKPIQGSVW,0.295 ± 0.49
12,WKQLTCWSEILDTIDSL,0.901 ± 0.79
13,WLGLGVRALRSENVCCRAFH,1.1 ± 0.49
14,WLGSYIVFLIRMETYDWWIV,-0.114 ± 0.38
15,WLHNIQRYTFFSKLRNQRRR,-0.442 ± 0.76
16,WLLIRKGGVRFKIQYRHQHS,1.73 ± 0.37
17,WLLISSALIIYVRHGLIRSM,-0.455 ± 0.81
18,WLLMSCTHCSCLKMRIHWKG,-1.1 ± 2.4
19,WLLWLTSSYKHQWMT,-1.7 ± 1.4
20,WLPFLVFCRGESYYRLDRSS,2.42 ± 0.091
21,WLSSKGRQSMSYCAYTMRTP,-0.247 ± 0.34
22,WLWINPMEVDYGVLTRLEKT,-0.213 ± 0.26
23,WMDTLVSIGRGGMLRVSCSG,0.519 ± 0.49
24,WMKVLVPFRMEAASGSLFCS,-1.22 ± 1.3
25,WMWGGGRWRRVPRRCMVVGR,-0.054 ± 0.4

row,Substance,amyloid nucleation score
1,WNEVILILDNCAIVCYDILT,4.05 ± 0.054
2,WNEWRGHVTILGDLYSYRHT,3.6 ± 0.16
3,WNIRGVMGLSNVR,-0.058 ± 0.29
4,WNSLSWRVRMRGDNQYRRGR,0.675 ± 1
5,WPRNRHGVVILLVVIANSCS,-0.379 ± 0.76
6,WPRVGETSRVNLTTGIMS,-0.297 ± 0.29
7,WPVYEDKACCHVDAHKGEAT,0.838 ± 0.48
8,WQQGLVCQI,0.241 ± 0.37
9,WQRNDQWMVVQVITVSV,0.176 ± 0.47
10,WRDTDCGLIN,inactive
11,WRESSGTNLSAFVPKDM,-0.675 ± 0.81
12,WRGRVTKFRVLH,0.105 ± 0.53
13,WRLMRECTFSVS,0.137 ± 0.29
14,WRLTSS,-0.809 ± 0.45
15,WRSSSFSGIWYVSVGYNASL,-0.455 ± 0.4
16,WSFLDWWIRSRSLITVCVVS,-0.348 ± 0.46
17,WSGWAKPSHYVALGRVGSWE,-0.075 ± 0.63
18,WSLQKRG,inactive
19,WSLVDDPLVFERLFWPCYQ,0.142 ± 0.31
